# Measurements published in article PMC2696559.
# Target: histone H2b (human, UniProt Q16778 1-126)
# Test: EMSA
binder,measurement,value
GGAGGAGGAGGAGGAG (ssDNA) [16-mer oligonucleotide],binding result,binds
